In patent US20240026407A1, “MODIFICATION OF SAPONINS” (GLAXOSMITHKLINE BIOLOGICALS SA, priority 2020, published 2024):

B1: 1064 (protein, listed as Lachnospiraceae bacterium)
chain: MEIYNLKINGMVNPIGFEYKEIICSWKVRKTEDKQQKKARISISADQEFHEIVFQIEGEELDSTGTLADFKIKPYTTYYWKVYVEGENGEYGTSETAFFETAKMCHKWKADWIGTDKEDTFHPVFQKKFYLRDGIKKARLYCCGLGVYEGYINGKKAGNDYLAPFINDYKDNLQYQTYDITDLLFQQKENKIEFLLGKGWYIGKFGLDGCEKIFGDEMMLIAEIRVEYFDGRIEVICTDDNWKYKGSDIEDSGIYFGEKINRQLWDDRQNLWKQAVKKKQKTPLKERYSLPLTVKEDIVPVKIIHTPIGETVLDVGQNMVGYMEFFADFPKGTRIKIECGEILQHGNFCHDNYTIAESTFEYISDGRKETVRPHFTYMGFRYLRVTGWPNEIKLGDIKCRVIYSDLQRTGFCKTQNSMLNQLYENCIWSQKSNFVDMPTDCPQRGERLGWTGDAQVFAATACYNMDTRAFYRKYLRDIRSHQLRKNGAIPNFIPDLGTFSEACSIWGDAATILPYQIYQSYGCAEEIRSYYTTMKDWVEYMVSMDESQGRHYKFQPGFQFGDWLALDGITEQSLKGSTDDNYIGCCYYYHSVKITSEIAQVLGYTEDAQRYQELSGKIRKAILNEYFTPKGRLSVDTQTAYIIALKFGLYNNKNVLIQQFKERLTRDCYKIKCGFAGTPLLCSVLGENGMEDIAYRILLNKDYPGWLYCVNLGATTVWERWNSVLSDGMLSGTGMNSLNHYAYGSVVQYFYEYIAGIRPKRPGFKEAFIEPKPDIRIQGVMCSYDSAMGVYKSEWKIQENGLICIHIEIPFNCTADVLLPEYSSNGLTYSDNVNGEMISENGKLQLCSGKYDFAYFPKNDYRHVYKPESILGDLREDKEALEILEKNIPVLYEIIQSNDIENMLITLQEFDTLHFMGIDPEIADETRKKIYNLNYYGK
B2: 1033 (protein, listed as Pedobacter heparinus)
chain: MNRRTFIQNTSIATSSLVFFNQFESLAFSKSDQDLYTLFKNPPANYRPFVRWWWNGNKIQKKELFRQLTLLKDAGIGGVEINPISFPNKADDMGIKSLRWLSDEWIDLVKDTCNEARSKDMTCDLIVGSGWPFGSEDLKEEERAEVVLVFAEKVEGPMVYETTKYSIYNAIDPQVTDKNPLRSPILMDLKLSQDPIAAIATTIDFSNQINNDIIKIDVPEGKHCIYALVKFKSFAKVINGAPGASGSILNHLNKQAVESYLNRMSSTMQDRIGPLSNYLRALFTDSMELEGCNWCEDFPAEFKKRCGYDLMPYLPFILFKVGRLGAVVDEDYGAEKSQDLNVILKKVRFDFEYTKALLLRERFTEVYLKWCKELKVKSRAQAYGRGFFPLETSLGYDIPEGESWTTNYLRHKLGEEMSDEDYRRGRGYTMINKYVSSAAHLTGKRIVSCEEMTNTYLVFNATLELLKLGSDQSIMSGITHSVWHGFNYSPKEVAFPGWVQYGSYYSEKNNWWPYFKYLNDYKARLSSQLQHGDYYTDIAILPANYDLWANNGVQTDPFPEKLNVPYTSLLWEAINKNGGAADYITDMILTQSEIIKGKIVYGKKSFGVLFLPGVESLSELAMQKIEQFVKTGGKVICIEKYPAKGLGFLNWEQKDATIKDAVARLKQQFSDRFIFLDKPADNKFLEWYTPLIATHQLPSYLNISTPNRYFMQIRSVRDDGTEMFFFQNAHRYDAYQARVVFDRKKIKGKYAWVWDLDSGERFRLTLTNDTTFEYNFGPTESLLIIFDQIKNGEKWKPLLSSGKSTLNLDKVWDLELRNSLDGSVKHVNLPQVIDMKDDKELVNFTGTAIYRKKITLTDTKNLVINLGKVYGITQLYINKVQVGIKWYGKRFFDISKYVQTGTNDIEIHLVTTMGNYMKTLTDNEIAQYWVNRKGREQEIQSMGIVGPIEIYQQN
B3: 1067 (protein, listed as Pedobacter heparinus)
chain: MKLIPNFLKTSMQQTVLLLLLALVCCADTVLAQQSGKASWIWYPGDLDIWVSNKMQNRRTERGAFLPPFWKMDSHYVLVEFHKEFNLANAEEVNLYVEGQYNVKIDGQAFSGYPKKITVPAGKHKLSLKVYGQDKVPAILVQGKTVVSDESWLATFEDKEWIDASGKASDKSGTTFVSAASWNLTDPLSPPSRFKLATTPMAAVKTDKVNNGFVADFGKETFGFIKLHGLKGKGKLHIYYGESKEEALSADHCETLDLLEIDLKGKQDSVIELSKAFRYVNCQPEGNVTLDKVSMLYEYAPVTEKGNFRCSDEQINKIYDISKYTFHLNTREFFIDGIKRDRWVWSGDAYQSYLMNYYSFNESPIVKRTLLAQRGKDPVTAHINTIMDYSFYWFLGIYDYYQYSGDQKFVQDIYPRMKSLMDYVLGRRNKDGLLEWMPGDWIFIDWADKLSKDGEVSFEQLLFCRSLETMALCADMAKDTEAAANYKKLAADLKARIFKLYWDENKHALVHSRINGKPTDNVTRYANMFGIFFDYFSPSQKQEVKQHVLMNNKINKITTPYMRFYELEALCAMGEQSYVLKQMKDYWGGMLELGATSFWEEYNRDKKGVEHLAMYGRPFGKSLCHAWGASPIYLLGKYYLGVKPLSAGYETYVVEPSLGGLEWMEGKVPTPSGEISLYCSKKEIRIKADEGSGVLRFKSVSKPVVKGGKVVEVGKRTYELKLMKGVQYTVNYQK
B4: 1071 (protein, listed as Opitutus terrae)
chain: MKRMKIMKRRIDIFRSSLFLGAYPAMAAPFVQRSAWIWSAEGTHAAPAPESASPSHYQVRLFRRVFLLENGGREGRIAVSADSRYVLYCNGALIGRGPARGDVHHQFYDTYELAPYLHRGANVLAALVLDMSHVAHRPAALGAPGGVMTYAGGFLLEGGVVDLNDRMEILDTGAAGWKVTVDRSYRFQNDGTRFEGYHGYFEHRVSAEAPADWTAASFDDSAWPDATVLYRAERLENRRDPASPYGLVARMIPPMEVGRVARFAAGVLPGGGKPGAEWKRLAAGKGAVTIPARSTVRIILDAGRMTTAYPLVQTDGGPGAHIRLTYAEALRLPWSTVGARMLGRPQSLANLASHFADESSGWTFDARGHVTGWSDRWEPAGRPREVFEPWHWRSFRFVELEIVTAEEPMELTDLGYRFTAYPYRVEAEFACSDPRLERIWQTALHTMRLCSHETFVDCPHYEQMQYAGDTMITSKLAMLSTGDYALSRQALLQFDWSRIPDGLTQSRYPSRLLQVIPSWSLHWITSIRDYACCSGDLQTVNEVLPGVRVVLDWYRRHADPSGLPSRLPYWNITDWCSWWPRGVVPGADEGPTCIISAQFVQALAEAADLHGWVGQRHEQRRLATEVKTLRGVLRRRFWSRDEGLFFDKPGGPEVSQYGNAWAIVCGAATAADRKRMLARFPADPLLAPGSFFCWHAVFRALEAAGAYDRLPEFLGPWHEMVEAGLDTFVEENSYWRSLCHAWSAHPALEFLAGVLGVKALEPGFATVRVTPHRCGLREARGQVCTPRGPITVAWTWEKGRFRIRVTAPRELQVEIGLPDGSDHRMTHGRFETEVVIHEA
B5: 1059 (protein, listed as Solibacter usitatus)
chain: MVEMSVPVLRSSAFIALLAGLALGADPANITELQRGFQHPPDEARIMVRWWWFGPAVTKPELEREMRLMKQGGIGGFEVQPTYALELDNAEKGIKNLPYMSPEFLEALRFTGEKAKELGLRMDLTLGSGWPFGGPHIPVELASPRLRVARAAVTAGAAAINVPELQPSEKLIAAFLGNQELEAAGSQSFRLPPSAAGQVTFFISSHTRQTVKRPAVGAEGWVLNHYDRAAIEQHFKSVGEPMLNALAKTPPAAIFSDSLEVYNSDWTGDFLAQFAKRRGYDLKPYLPALAGDIGEKTGAIRNDWGQTLSELAEENYLKPLTAWAHQHNTKFRSQTYGIPPVTLSSYSLVDLPEGEGTQWRHFSSTRWATSASHLYNRPVTSSETWTWLHSPVFRATPLDMKAEADLHFLQGVNQLVAHGWPYSPPSVGEPGWRFYAAAVFNEHNPWWIVMPDIATYMQRVSWMLRQGKPVNDVAVYLPTHDAFAGFTLGRDSVNQAMEGILGPKLVPTILDAGYGFDFIDDGAIAAGGVPHKILIVPGAERIPLATYQKIEEYRRDGGKVFFTKRLPSLAPGLREEGDTAKIRELSAKHVVTGDDGLAGALHDALPADFTAPPEIGVVHRKLAYADVYFLANTSNHAVKGAAKFRASGMPAAWWDPVTGKSSKADLNLELAPYESRVLVFSRAGGAVMGQAMSLPEVDISSDWTITFPGEQPVKMATLRPWTDEENRKFYSGTATYERKVTATPAMAAAHVFLNFGEGTVADPASERRAPSGMRAWLESPVREAAQVFVNGKPAGAVWKAPYEVDVTGLLQAGENSIRVVVANLALNVLAKGPLPDYKELTAKYGEKFQAQDMQSVRALPGGMMGPVKLVSK
B6: 1019 (protein)
chain: MNKKQLILLCMLAAGGSIQAQQWPDAPAEARPGTRWWWLGSAVDEKNLTYNLEEYARAGMGAVEITPIYGVQGNDANDIQFLSPRWMEVLKHTQAEGKRTGIEIDMNTGTGWPFGGPEVSIEDAASKAIFQTYDIEGGQEIVQDINVTDKKQQPYSVLSRVMAYDENGRCINLTSHVRKDKLVWKAPAGKWKVIALYNSKTRQKVKRAAPGGEGYVMNHLSKTAVKNYLSRFNRAFKSSKTSYPHTFFNDSYEVYQADWTEDFLDQFARRRGYKLEEHFPEFLDENRPEISRRIVSDYRETISDLLLENFTRQWTDWAHKNGSITRNQAHGSPANLIDVYAAVDIPECEGFGLSQFHIKGLRQDSLTKKNDSDLSMLKYASSAAHIAGKPYTSTETFTWLTEHFRTSLSQCKPDMDLMFVSGINHMFFHGTPYSPKEAEWPGWLFYASINMNPTNSIWHDAPSFFDYITRCQSFLQMGKPDNDFLIYLPVYDMWDEQPGRLLLFSIHHMAKLAPKFIDAIHRINNSGYDGDYISDNFIRSTRFKDGQLITSGGTGYKALVVPAAHLMPNDVLAHLLKLAQQGATIVFLENYPTDVPGYGQLEQKRKTYQQTLQKLPSVSFSETTVTPVGKGKIITGTDYARTLASCNIPQEEMKTKFGLQAIRRVNDSGHHYFISSLQDKGVNDWVTLGTKAKAAALFNPMTGECGEAKVRQAGEQTQVYLQLKSGESVILQTYQQPLQAARPWKYIQEQPFSLSLDHGWKLHFAESEPKIKGTFDIDRPCSWTGIDHPAAKINMGSGVYSLDIELPALQADDWVLDLGDVRESARVRINGQEAGCAWAVPYQLRVGHLLKSGKNHIEIEVTNLPANRISELDRQGVQWRKFKEINIVDLNYRPANYGHWAPMPSGLNSEVRLIPVDYLSFKTH
modifications: Bacteroides thetaiotaomicron

Key:
Type in all cases: biochemical, Quillaja saponaria
[1] = Experiment 6-1: screening of rhamnosidases for derhamnosylation of saponins in treated bark extract (2%), QS-17 2296 to QS-18 2150 (PAR %); conditions: TBE 2%, pH 7.5, 30 degC, 18 h; TIC peak area ratio percent of rhamnosylated starting saponin to derhamnosylated product, LCMS/MS; negative controls 4.876, 5.225
[2] = Experiment 6-1: screening of rhamnosidases for derhamnosylation of saponins in treated bark extract (2%), desglucosyl-QS-17 2134 to QS-21 1988 (PAR %); conditions: TBE 2%, pH 7.5, 30 degC, 18 h; TIC peak area ratio percent, LCMS/MS; negative controls 2.719, 2.158
[3] = Experiment 6-1: screening of rhamnosidases for derhamnosylation of saponins in treated bark extract (2%), QS-17 2310 to QS-18 2164 (PAR %); conditions: TBE 2%, pH 7.5, 30 degC, 18 h; TIC peak area ratio percent, LCMS/MS; negative controls 3.061, 2.429
[4] = Experiment 6-1: specificity of rhamnosidases towards other rhamnose residues (C3 saccharide rhamnose, C28 saccharide rhamnose); conditions: TBE 2%, pH 7.5, 30 degC, 18 h; LCMS/MS; negative controls 0.18, 0.17

Molecule	QS-17 (PAR %) [1] [%]	Peak75 (PAR %) [2] [%]	Peak57 (PAR %) [3] [%]	ratio PP/QS-21 [4]
B1	4.625	2.476	3.009	0.18
B2	4.485	2.521	2.927	0.16
B3	4.455	2.231	2.852	0.17
B4	4.587	2.574	2.650	0.17
B5	4.613	2.534	2.956	0.16
B6	4.626	2.982	2.390	0.15
